The values below are quoted from earlier work in article PMC8349851.

The series addresses PI3K p85 regulatory subunit SH3 (Homo sapiens) (UniProt P27986).
Chain of UniProt P27986 (P27986 1-82): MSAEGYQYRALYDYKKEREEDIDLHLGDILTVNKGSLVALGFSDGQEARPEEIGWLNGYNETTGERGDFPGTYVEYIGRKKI

A word on the Kd: it is a measure of binding affinity in units of concentration. With obscurin PH (from UniProt Q5VST9), the Kd is 0.05 µM.
